Changes are numbered by the printed parent chain.
T1: human CD105 (R&D Systems, Catalog No. 1097-EN) (human, UniProt P17813 26-586)
T1 construct: Captured on the plate by mouse anti-human CD105 (Southern Biotechnologies 9811-01); also called endoglin
T1 sequence (looked up): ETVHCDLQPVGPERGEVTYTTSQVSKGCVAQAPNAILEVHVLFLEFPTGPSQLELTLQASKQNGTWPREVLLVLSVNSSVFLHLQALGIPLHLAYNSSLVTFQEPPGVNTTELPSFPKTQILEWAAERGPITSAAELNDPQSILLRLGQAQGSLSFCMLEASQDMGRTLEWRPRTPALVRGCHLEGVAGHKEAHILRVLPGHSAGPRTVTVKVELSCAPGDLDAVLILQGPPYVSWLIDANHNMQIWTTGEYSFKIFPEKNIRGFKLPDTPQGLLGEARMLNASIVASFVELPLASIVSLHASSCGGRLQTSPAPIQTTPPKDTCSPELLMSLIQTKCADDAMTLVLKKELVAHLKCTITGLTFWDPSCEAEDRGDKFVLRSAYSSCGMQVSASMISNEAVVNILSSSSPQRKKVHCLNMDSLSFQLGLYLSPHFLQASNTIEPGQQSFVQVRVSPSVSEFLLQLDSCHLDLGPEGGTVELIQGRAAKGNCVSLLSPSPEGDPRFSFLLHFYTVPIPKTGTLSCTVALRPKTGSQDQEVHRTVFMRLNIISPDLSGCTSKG

B1: VK2ASVH1A (antibody, V domains shown)
VH: EVQLVESGGGLVKPGGSLRLSCAASGFTFSDAWMDWVRQAPGKGLEWVAEIRSKASNHATYYAESVKGRFTISRDDSKNTLYLQMNSLKTEDTAVYYCTRWRRFFDSWGQGTLVTVSS
VL: DIQLTQSPSSLSASVGDRATITCRASSSVSYMHWYQQKPGKAPKPWIYASSNLASGVPSRFSGSGSGTDYTLTISSLQPEDFATYYCQQWSSNPLTFGGGTKVEIK
notes: IgG1 heavy chain, kappa light chain
B2: VK2ASVH1S (antibody, V domains shown)
VH: B1 VH with A49S
VL: B1 VL
notes: as for B1
B3: VK2SAVH1Q (antibody, V domains shown)
VH: B1 VH with A49G, K54Q
VL: B1 VL with A19V, T22S, I47A, S50T
notes: as for B1
B4: VK2SAVH1A (antibody, V domains shown)
VH: B1 VH
VL: B1 VL with A19V, T22S, I47A, S50T
notes: as for B1
B5: VK2SSVH1R (antibody, V domains shown)
VH: B1 VH with A49G, K54R
VL: B1 VL with A19V, T22S
notes: as for B1
B6: VK2SSVH1Q (antibody, V domains shown)
VH: B1 VH with A49G, K54Q
VL: B1 VL with A19V, T22S
notes: as for B1
B7: VK2SSVH1S (antibody, V domains shown)
VH: B1 VH with A49S
VL: B1 VL with A19V, T22S
notes: as for B1
B8: VK2ASVH1Q (antibody, V domains shown)
VH: B1 VH with A49G, K54Q
VL: B1 VL
notes: as for B1
B9: VK2SAVH1A2 (antibody, V domains shown)
VH: B1 VH with A49G, I51A
VL: B1 VL with A19V, T22S, I47A, S50T
notes: as for B1
B10: VK2ASVH1R (antibody, V domains shown)
VH: B1 VH with A49G, K54R
VL: B1 VL
notes: as for B1
B11: VK2SAVH1S (antibody, V domains shown)
VH: B1 VH with A49S
VL: B1 VL with A19V, T22S, I47A, S50T
notes: as for B1
B12: VK2SSVH1A2 (antibody, V domains shown)
VH: B1 VH with A49G, I51A
VL: B1 VL with A19V, T22S
notes: as for B1
B13: VK2SAVH1R (antibody, V domains shown)
VH: B1 VH with A49G, K54R
VL: B1 VL with A19V, T22S, I47A, S50T
notes: as for B1

Molecular target: T1, human CD105 (R&D Systems, Catalog No. …)
Assay: competition ELISA on captured human CD105; competitor biotinylated chimeric anti-CD105
Protocol: Antibodies were tested in a competition ELISA for binding to CD105 against biotinylated chimeric anti-CD105. Briefly, chimeric anti-CD105 was biotinylated using a micro-biotinylation kit (Sigma, Catalog No. BTAG-1KT) following the manufacturer's instructions. […] Binding of the biotinylated chimeric antibody was detected via streptavidin-HRP (Sigma, Catalog No. 55512) and TMB substrate (Sigma, Catalog No. T0440). OD450 nm values were measured on a Dynex MRX TCII plate reader. The results of the competition analysis are illustrated in FIGS. 7 and 8. […] To allow for comparisons within and between experiments, IC50 values of humanized or humanized/deimmunized variants were normalized against the reference antibody that was included on each plate to give a value for the fold difference. IC50 values are relative to chimeric anti-CD105 and are representative of three experiments. Summary ELISA data are presented in Table 1 and include antibody expression levels […]) as assayed in saturated static cultures.

Binder	Relative IC50 (fold of chimeric anti-endoglin antibody)
B1	1.41 fold relative to chimeric
B2	1.31 fold relative to chimeric
B3	0.87 fold relative to chimeric
B4	0.49 fold relative to chimeric
B5	0.62 fold relative to chimeric
B6	1.21 fold relative to chimeric
B7	1.21 fold relative to chimeric
B8	1.04 fold relative to chimeric
B9	0.84 fold relative to chimeric
B10	1.02 fold relative to chimeric
B11	0.96 fold relative to chimeric
B12	1.03 fold relative to chimeric
B13	0.77 fold relative to chimeric

Reference: patent publication US20200048360A1 (TRACON PHARMACEUTICALS, published 2020)
